Measured values as given in US20240392020A1 (JIANGSU HENGRUI PHARMACEUTICALS, published 2024).
Where two headings read alike, the source gives them in different places.

How the values were obtained:
hBAFF [1] = target: T1, hBAFF (human, UniProt Q9Y275 134-285); assay: ELISA
T1 construct: bought

hBAFF [2] = target: T1, hBAFF; assay: SPR Biacore T200, antibody captured on Protein A chip
hBAFF [3] = target: T1, hBAFF; assay: ELISA; remark: listed apart in the source
hBAFF [4] = target: T1, hBAFF; assay: SPR Biacore T200, antibody captured on Protein A chip; remark: listed apart in the source
hBAFF [5] = target: T1, hBAFF; assay: SPR Biacore T200, BU5 captured, hBAFF injected after saturation with hP40
hP40 [6] = target: T2, hP40 (human, UniProt P29460 23-328); assay: SPR Biacore T200, antibody captured on Protein A chip
T2 construct: bought
T2 sequence (looked up): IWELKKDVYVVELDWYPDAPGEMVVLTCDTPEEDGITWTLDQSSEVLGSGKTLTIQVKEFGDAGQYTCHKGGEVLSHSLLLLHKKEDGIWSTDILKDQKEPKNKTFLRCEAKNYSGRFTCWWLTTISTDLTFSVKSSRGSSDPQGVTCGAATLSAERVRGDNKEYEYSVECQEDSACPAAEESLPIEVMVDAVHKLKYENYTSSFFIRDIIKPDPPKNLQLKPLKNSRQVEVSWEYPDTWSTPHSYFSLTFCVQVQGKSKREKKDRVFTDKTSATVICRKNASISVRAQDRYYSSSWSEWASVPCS

hP40 [7] = target: T2, hP40; assay: SPR Biacore T200, BU5 captured, hP40 injected after saturation with hBAFF
hB7H3 antigen protein = target: T3, hB7H3 antigen protein (human, UniProt Q5ZPR3 29-461); assay: SPR Biacore T200, antibody captured on Protein A chip
T3 construct: prepared in the laboratory
T3 sequence: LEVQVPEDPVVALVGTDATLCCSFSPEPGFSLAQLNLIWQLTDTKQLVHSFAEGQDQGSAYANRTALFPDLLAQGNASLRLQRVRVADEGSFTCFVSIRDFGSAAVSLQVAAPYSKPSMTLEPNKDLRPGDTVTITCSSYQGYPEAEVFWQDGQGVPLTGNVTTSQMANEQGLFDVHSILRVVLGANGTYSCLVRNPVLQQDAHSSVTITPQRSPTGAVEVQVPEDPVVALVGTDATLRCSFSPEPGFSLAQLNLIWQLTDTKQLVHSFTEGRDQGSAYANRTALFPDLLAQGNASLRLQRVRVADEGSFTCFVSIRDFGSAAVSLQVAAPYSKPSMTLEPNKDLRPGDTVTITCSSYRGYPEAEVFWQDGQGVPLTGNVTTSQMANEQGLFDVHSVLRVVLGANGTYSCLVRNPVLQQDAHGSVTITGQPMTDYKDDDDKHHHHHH

[8] = target: T4, hCD3 antigen protein (heterodimer of delta and epsilon subunits) (human); assay: as above
T4 construct: prepared in the laboratory
T4 chain 1: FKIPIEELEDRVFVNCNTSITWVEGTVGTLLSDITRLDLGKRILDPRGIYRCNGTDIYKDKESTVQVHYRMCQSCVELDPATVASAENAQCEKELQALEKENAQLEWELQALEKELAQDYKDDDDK
T4 chain 2: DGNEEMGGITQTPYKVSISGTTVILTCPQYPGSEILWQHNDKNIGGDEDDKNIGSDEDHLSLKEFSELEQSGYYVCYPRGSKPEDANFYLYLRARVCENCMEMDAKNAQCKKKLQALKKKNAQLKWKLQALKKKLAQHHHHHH

human PDL1-his [9] = target: T5, human PDL1-his (human, UniProt Q9NZQ7 19-239); assay: SPR Biacore T200, antibody captured, hPDL1 injected after saturation with TIGIT
T5 construct: bought; also called hPDL1
T5 sequence (Q9NZQ7 19-239 limits assumed): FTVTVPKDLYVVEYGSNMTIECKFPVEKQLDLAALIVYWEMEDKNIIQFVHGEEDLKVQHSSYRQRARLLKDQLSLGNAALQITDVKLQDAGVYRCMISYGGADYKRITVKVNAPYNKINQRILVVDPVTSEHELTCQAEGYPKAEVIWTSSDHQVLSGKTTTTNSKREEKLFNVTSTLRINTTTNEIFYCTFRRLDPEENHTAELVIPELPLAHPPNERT

human TIGIT-his [10] = target: T6, human TIGIT-his (human, UniProt Q495A1 22-141, limits assumed); assay: SPR Biacore T200, antibody captured on Protein A chip
T6 construct: bought; also called hTIGIT
T6 sequence (looked up): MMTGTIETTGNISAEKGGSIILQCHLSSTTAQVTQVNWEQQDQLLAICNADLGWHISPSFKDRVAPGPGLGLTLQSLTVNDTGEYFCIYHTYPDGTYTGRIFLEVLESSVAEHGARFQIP

human PDL1-his [11] = target: T5, human PDL1-his; assay: as above
human TIGIT-his [12] = target: T6, human TIGIT-his; assay: SPR Biacore T200, antibody captured, TIGIT injected after saturation with hPDL1
Heavy chain of D0 = target: T7, Heavy chain of D0 (Homo sapiens (Human), UniProt P0DOX5 1-449 = IgG part); assay: co-expression in HEK293E cells, LC-MS for the mispaired molecule
T7 construct: single antibody chain, co-expressed

HJ-2-L2 = target: T8, HJ-2-L2; assay: mass spectrometry of the product of four co-transfected chains of HJ-2; mispairing of heavy chain 2 with light chain 3
T8 construct: also called chain 3 of HJ-2
T8 sequence (light, as listed by the source limits assumed): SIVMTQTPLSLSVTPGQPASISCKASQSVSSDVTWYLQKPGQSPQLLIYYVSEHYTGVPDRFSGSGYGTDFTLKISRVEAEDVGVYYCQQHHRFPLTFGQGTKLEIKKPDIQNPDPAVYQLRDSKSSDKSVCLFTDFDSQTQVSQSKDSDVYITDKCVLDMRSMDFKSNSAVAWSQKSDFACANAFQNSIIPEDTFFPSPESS

HJ-3-L1 = target: T9, HJ-3-L1; assay: mass spectrometry of the product of four co-transfected chains of HJ-3; mispairing of heavy chain 2 with light chain 3
T9 construct: also called chain 3 of HJ-3

B1: Bmab (antibody, human IgG1, lambda)
heavy: not shown
light: SSELTQDPAVSVALGQTVRVTCQGDSLRSYYASWYQQKPGQAPVLVIYGKNNRPSGIPDRFSGSSSGNTASLTITGAQAEDEADYYCSSRDSSGNHWVFGGGTELTVLGQPKAAPSVTLFPPSSEELQANKATLVCLISDFYPGAVTVAWKADSSPVKAGVETTTPSKQSNNKYAASSYLSLTPEQWKSHRSYSCQVTHEGSTVEKTVAPTECS
notes: also called B0
Binder B1 has an EC50 (hBAFF [1]) of 0.219 nM, a Kd (hBAFF [2]) of 0.864 nM and a koff (hBAFF [2]) of 0.000153 s⁻¹. The kon (hBAFF [2]) was 177000 M⁻¹ s⁻¹, the EC50 (hBAFF [3]) was 0.2 nM and the Kd (hBAFF [4]) was 0.855 nM. For the same binder, the koff (hBAFF [4]) was 0.000152 s⁻¹ and the kon (hBAFF [4]) was 177000 M⁻¹ s⁻¹.

B2: BU5 (bispecific antibody, human IgG1, kappa, L234A L235A)
heavy 1: QVQLQQSGAEVKKPGSSVRVSCKASGGTFNNNAINWVRQAPGQGLEWMGGIIPMFGTAKYSQNFQGRVAITADESTGTASMELSSLRSEDTAVYYCARSRDLLLFPHHALSPWGRGTMVTVSSGGGGSGIPPKIECLPIDISIDEGKVLTVASAFTGEPTPEVTWSTGGRKIHSQEQGRFHIENTDDLTTLIIKDVQKQDGGLYTLTLRNEFGSDSATVNIHIRSIDKTHTCPPCPAPEAAGGPSVFLFPPKPKDTLMISRTPEVTCVVVDVSHEDPEVKFNWYVDGVEVHNAKTKPREEQYNSTYRVVSVLTVLHQDWLNGKEYKCKVSNKALPAPIEKTISKAKGQPREPQVCTLPPSREEMTKNQVSLSCAVKGFYPSDIAVEWESNGQPENNYKTTPPVLDSDGSFFLVSKLTVDKSRWQQGNVFSCSVMHEALHNHYTQKSLSLSPGK
light 1: SSELTQDPAVSVALGQTVRVTCQGDSLRSYYASWYQQKPGQAPVLVIYGKNNRPSGIPDRFSGSSSGNTASLTITGAQAEDEADYYCSSRDSSGNHWVFGGGTELTVLGGGGSSGAPRFLTRPLAFVVSVGKDATLSSQIVGNPTPQVSWEKDKQPVTAGARFRLAQDGDLYRLKILDLQLSDSGQYVSRARNAIGEAFACLGLQVDAEA
heavy 2: not shown
light 2: not shown
B2 showed a Kd (hBAFF [5]) of 0.537 nM, a koff (hBAFF [5]) of 8.44e-05 s⁻¹ and a kon (hBAFF [5]) of 157000 M⁻¹ s⁻¹. The Kd (hP40 [6]) was 0.0664 nM, the koff (hP40 [6]) was 0.000102 s⁻¹ and the kon (hP40 [6]) was 1.54e+06 M⁻¹ s⁻¹. The Kd (hBAFF [4]) was 0.393 nM, the koff (hBAFF [4]) was 7.62e-05 s⁻¹ and the kon (hBAFF [4]) was 194000 M⁻¹ s⁻¹. It also gave a Kd (hP40 [7]) of 0.0661 nM, a koff (hP40 [7]) of 0.000104 s⁻¹ and a kon (hP40 [7]) of 1.57e+06 M⁻¹ s⁻¹.

B3: FA-1 (bispecific antibody)
heavy 1: QVQLVQSGGGVVQPGTSLRLSCAASGFIFSSSAMHWVRQAPGKGLEWVAVISYDGSNKYYVDSVKGRFTISRDNSKNTLYLQMNSLRAEDTAVYYCARSARLYASFDYWGQGALVTVSSGGGGSGIPPKIECLPIDISIDEGKVLTVASAFTGEPTPEVTWSTGGRKIHSQEQGRFHIENTDDLTTLIIKDVQKQDGGLYTLTLRNEFGSDSATVNIHIRSIDKTHTCPPCPAPEAAGGPSVFLFPPKPKDTLMISRTPEVTCVVVDVSHEDPEVKFNWYVDGVEVHNAKTKPREEQYNSTYRVVSVLTVLHQDWLNGKEYKCKVSNKALPAPIEKTISKAKGQPREPQVCTLPPSREEMTKNQVSLSCAVKGFYPSDIAVEWESNGQPENNYKTTPPVLDSDGSFFLVSKLTVDKSRWQQGNVFSCSVMHEALHNHYTQKSLSLSPGK
light 1: DTVVTQEPSFSVSPGGTVTLTCGLSSGSVSTSHYPSWYQQTPGQAPRMLIYNTNTRSSGVPDRFSGSILGNKAALTITGAQADDESDYYCAIHVDRDIWVFGGGTKLTVLGGGGSSGAPRFLTRPLAFVVSVGKDATLSSQIVGNPTPQVSWEKDKQPVTAGARFRLAQDGDLYRLKILDLQLSDSGQYVSRARNAIGEAFACLGLQVDAEA
heavy 2: not shown
light 2: not shown
notes: also called FA-1 bispecific antibody
B3 showed a Kd (hB7H3 antigen protein) of 45 nM, a koff (hB7H3 antigen protein) of 0.00712 s⁻¹ and a kon (hB7H3 antigen protein) of 158000 M⁻¹ s⁻¹. The Kd [8] was 60.2 nM, the koff [8] was 0.00425 s⁻¹ and the kon [8] was 70600 M⁻¹ s⁻¹.

B4: P-O-T (bispecific antibody, human IgG1, kappa)
heavy: not shown
light 1: DIVLTQSPASLAVSPGQRATITCRASESVSIHGTHLMHWYQQKPGQPPKLLIYAASKLESGVPARFSGSGSGTDFTLTINPVEAEDTANYYCQQSFEDPLTFGQGTKLEIKGGGGSGIPPKIECLPIDISIDEGKVLTVASAFTGEPTPEVTWSTGGRKIHSQEQGRFHIENTDDLTTLIIKDVQKQDGGLYTLTLRNEFGSDSATVNIHIRSI
light 2: DIQMTQSPSSLSASVGDRVTITCRASENIYSYLAWYQQKPGKSPKLLIYNARTLAEGVPSRFSGSGSGTDFTLTISSLQPEDFATYYCQYHSGSPLPFGGGTKVEIKRTVAAPSVFIFPPSDEQLKSGTASVVCLLNNFYPREAKVQWKVDNALQSGNSQESVTEQDSKDSTYSLSSTLTLSKADYEKHKVYACEVTHQGLSSPVTKSFNRGEC
notes: also called anti-PDL1-TIGIT bispecific antibody in a (FabV)2-IgG form; PDL1-TIGIT bispecific antibody
Binder B4 has a Kd (human PDL1-his [9]) of 0.0303 nM, a koff (human PDL1-his [9]) of 8.12e-05 s⁻¹ and a kon (human PDL1-his [9]) of 2.68e+06 M⁻¹ s⁻¹. For the same binder, the Kd (human TIGIT-his [10]) was 0.097 nM, the koff (human TIGIT-his [10]) was 0.000123 s⁻¹ and the kon (human TIGIT-his [10]) was 1.27e+06 M⁻¹ s⁻¹. For the same binder, the Kd (human PDL1-his [11]) was 0.0257 nM, the koff (human PDL1-his [11]) was 9.53e-05 s⁻¹ and the kon (human PDL1-his [11]) was 3.71e+06 M⁻¹ s⁻¹. For the same binder, the Kd (human TIGIT-his [12]) was 0.0954 nM, the koff (human TIGIT-his [12]) was 0.00012 s⁻¹ and the kon (human TIGIT-his [12]) was 1.26e+06 M⁻¹ s⁻¹.

B5: Light chain of I3 (other)
light: DIQMTQSPSSLSASVGDRVTITCRASQSISNNLNWYQQKPGKAPKLLIYYTSRFHSGVPSRFSGSGSGTDFTFTISSLQPEDIATYYCQQEHTLPYTFGQGTKLEIKSGAPRFLTRPLAFVVSVGKDATLSSQIVGNPTPQVSWEKDKQPVTAGARFRLAQDGDLYRLKILDLQLSDSGQYVSRARNAIGEAFACLGLQVDAEA
notes: single antibody chain, co-expressed
B5: no binding (Heavy chain of D0).

B6: HJ-2-H1 (other)
heavy: EVQLVESGGGLVQPGGSLRLSCAASGFTFSHYYMAWVRQAPGKGLEWVTSISYEGDITYYGDSVKGRFTISRDNSKNTLYLQMNSLRAEDTATYYCASQTLRESFDYWGQGTLVTVSSASTKGPSVFPLAPSSKSTSGGTAALGCLVKDYFPEPVTVSWNSGALTSGVHTFPAVLQSSGLYSLSSVVTVPSSSLGTQTYICNVNHKPSNTKVDKKVEPKSCDKTHTCPPCPAPEAAGGPSVFLFPPKPKDTLMISRTPEVTCVVVDVSHEDPEVKFNWYVDGVEVHNAKTKPREEQYNSTYRVVSVLTVLHQDWLNGKEYKCKVSNKALPAPIEKTISKAKGQPREPQVCTLPPSREEMTKNQVSLSCAVKGFYPSDIAVEWESNGQPENNYKTTPPVLDSDGSFFLVSKLTVDKSRWQQGNVFSCSVMHEALHNHYTQKSLSLSPGKDYKDDDDK
notes: also called chain 2 of HJ-2
B6: no binding (HJ-2-L2).

B7: HJ-3-H2 (other)
heavy: EVQLVQSGAEVKKPGSSVKVSCKASGYTFSNYLIEWVRQAPGQGLEWIGVIDPGVGDTNYNENFKGRATLTADKSTSTAYIELSSLRSEDTAVYYCAREDNTGTAFDYWGQGTTVTVSSASTKGPSVFPLAPSSKSTSGGTAALGCLVKDYFPEPVTVSWNSGALTSGVHTFPAVLQSSGLYSLSSVVTVPSSSLGTQTYICNVNHKPSNTKVDKKVEPKSCDKTHTCPPCPAPEAAGGPSVFLFPPKPKDTLMISRTPEVTCVVVDVSHEDPEVKFNWYVDGVEVHNAKTKPREEQYNSTYRVVSVLTVLHQDWLNGKEYKCKVSNKALPAPIEKTISKAKGQPREPQVCTLPPSREEMTKNQVSLSCAVKGFYPSDIAVEWESNGQPENNYKTTPPVLDSDGSFFLVSKLTVDKSRWQQGNVFSCSVMHEALHNHYTQKSLSLSPGKDYKDDDDK
notes: also called chain 2 of HJ-3
B7: no binding (HJ-3-L1).
